# Reference: patent US20250262323, “PCSK9 ENDONUCLEASE VARIANTS, COMPOSITIONS, AND METHODS OF USE” (Novo Nordisk A/S, published 2025)
# T1: PCSK9.H7.C11 I-OnuI HE variant (synthetic construct (Ophiostoma …))
# T1 chain: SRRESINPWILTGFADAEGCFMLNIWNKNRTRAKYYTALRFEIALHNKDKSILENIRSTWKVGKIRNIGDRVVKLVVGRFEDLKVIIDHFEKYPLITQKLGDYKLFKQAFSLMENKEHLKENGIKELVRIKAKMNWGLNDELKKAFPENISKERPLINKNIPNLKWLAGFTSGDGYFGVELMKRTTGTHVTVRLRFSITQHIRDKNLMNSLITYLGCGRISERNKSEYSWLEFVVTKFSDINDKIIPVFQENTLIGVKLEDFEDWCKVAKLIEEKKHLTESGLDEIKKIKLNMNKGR
# How the values were obtained:
# [1] = target: T1, PCSK9.H7.C11 I-OnuI HE variant; test: cell_activity; HEK 293T chromosomal mCherry reporter
# Procedure: The activity of reprogrammed I-OnuI HEs that target exon 4 of the PCSK9 gene was measured using a chromosomally integrated fluorescent reporter system (Certo et. al., 2011). Fully reprogrammed I-OnuI HEs that bind and cleave the PCSK9 target sequence were cloned into mammalian expression plasmids and then individually transfected into a HEK 293T […] cell line that contained the PCSK9 target sequence upstream of an out-of-frame gene encoding the fluorescent mCherry protein. Cleavage of the embedded target site by the HE and the accumulation of indels following DNA repair via the non-homologous end joining (NHEJ) pathway results in approximately one out of three repaired loci placing the fluorescent reporter gene back “in-frame”. The percentage of mCherry fluorescing HEK 293T cells is therefore used a readout of endonuclease activity at the chromosomally embedded target sequence. […] FIG. 3 (top panels).
# A secondary I-OnuI variant library was next generated by performing random mutagenesis on the PCSK9.H7 HE variant (e.g., SEQ ID NO: 6). Display-based flow sorting was performed under more stringent cleavage conditions in an effort to isolate variants with improved catalytic efficiency. FIG. 3 (bottom panel). This process led to variant PCSK9.H7.C11 (SEQ ID NO: 7) with an approximately 2-fold higher rate of mCherry expressing cells.
# [2] = target: T1, PCSK9.H7.C11 I-OnuI HE variant; test: flow; sub-nanomolar affinity; yeast surface display substrate titration; exact value only in figure; conditions: tags: yeast surface display
binder,measurement,setting,value
PCSK9 exon 4 HE target site (dsDNA) DNA 1: ATCTAAGAGATACACCTCCACC DNA 2: GGTGGAGGTGTATCTCTTAGAT,activity,[1],~2 fold vs PCSK9.H7
same,Kd,[2],< 1 nM
